The source of these data is patent publication US20240301039A1 (NEW YORK UNIVERSITY IN ABU DHABI, published 2024).

The target in assay [1] is T1, SARS-CoV-2 C14S,C23S,C73S NSP9 (triSer-Nsp9) (SARS-CoV-2, UniProt P0DTC1 4141-4253).
T1 construct: also called NSP (dissolved in ammonium acetate); INS (dissolved in DMSO/PBS)
T1 chain: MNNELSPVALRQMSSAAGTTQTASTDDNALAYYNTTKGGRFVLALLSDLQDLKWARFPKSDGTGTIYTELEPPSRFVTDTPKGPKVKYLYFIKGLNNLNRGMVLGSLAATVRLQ
As to the kind of experiment: ELISA signal on INS over uncoated blocked blank.

The target in assay [2] is T1, SARS-CoV-2 C14S,C23S,C73S NSP9 …. Description: ELISA signal on NSP over uncoated blocked blank. (ELISA stands for enzyme-linked immunosorbent assay.)
Assay [3] has the same target. As to the kind of experiment: ELISA, periplasmic extract; Nsp9 in DMSO/PBS (INS) coated.
The target is the same in assay [4]. As to the kind of experiment: ELISA, periplasmic extract; Nsp9 in ammonium acetate (NSP) coated.
The target in assay [5] is T2, SARS-CoV-2 C14S,C23S,C73S NSP9 (triSer-NSP9) (SARS-CoV-2, UniProt P0DTC1 4141-4253).
T2 construct: also called NSP (dissolved in ammonium acetate); INS (dissolved in DMSO and diluted in PBS)
T2 chain: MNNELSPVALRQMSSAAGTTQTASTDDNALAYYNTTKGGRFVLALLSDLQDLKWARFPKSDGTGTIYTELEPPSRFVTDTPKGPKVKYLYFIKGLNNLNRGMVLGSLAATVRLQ
As to the kind of experiment: ELISA signal on INS over uncoated blocked well.

Assay [6] addresses T2, SARS-CoV-2 C14S,C23S,C73S NSP9 …. Description: ELISA signal on NSP over uncoated blocked well.

B1: 2INS61 (VHH)
VHH: QVQLQESGGGLVQAGGSLRLSCAASGSIFSINTMGWYRQAPGKQRELVAAITSGGSTNYADSVKGRFTISRDNAKNTVHLQMNSLKPEDTAVYYCNVVEGWGPPVGYWGQGTQVTVSS
B1: the INS/control in assay [1] was 2.75. The same molecule came in with an NSP/control in assay [2] of 8.02. Further, the “ELISA INS” value in assay [3] is 1.84. For the same molecule, the “ELISA NSP” value in assay [4] was found to be 5.36.

B2: 3INS39 (VHH)
VHH: QVQLQESGGGLVQAGGSLRVSCEVSGIMFGINTMGWYRQAPGKQRELVAHITSSGSTNYADSVKGRFTISRDNAKKTVYLQMNSLKPEDTAVYYCNVVAGWGPPPGYWGQGTQVTVSS
B2 returned an INS/control in assay [1] of 2.7. In assay [2], this molecule gave an NSP/control of 4.42. Besides, the “ELISA INS” value in assay [3] is 2.49. The “ELISA NSP” value in assay [4] was determined as 4.07.

B3: 2INS64 (VHH)
VHH: QVQLQESGGGLVQVGGSLRLSCAASGSILSINAMGWYRQAPGKQRELVAAITSGGSTNYADSVKGRFTISRDNAKNMLYLQMNSLKPEDTAVYYCHVVTGWGPLDWGQGTQVTVSS
The molecule B3 had an INS/control in assay [5] of 26.7. In assay [6], this molecule registered an NSP/control of 45.2.

B4: 2INS69 (VHH)
VHH: QVQLQESGGGLVRAGDSLRLSCAVSGRTFSSVAMGWFRQAPGKEREFVAFISGSTGSVTYYADSVKGRFAISRDNAKNTVYLQMNSLKPEDTAVYDCAAKFTGTFNYQGLYDYWGQGTQVTVSS
Molecule B4 registered an INS/control in assay [5] of 14.1. In addition, the NSP/control in assay [6] was 13.8.

B5: 3NSP52 (VHH)
VHH: QVQLQESGGGLVQPEGSLRLSCAASGLTFDSYAIGWFRQAPGKEREFVAASIWSGDSGHYTGSVKGRFTISRDNAKNTVDLQMNSLKPEDTAVYYCAASASFLHSANYHMRAKWGYWGQGTQVTVSS
B5: in assay [1], the INS/control is 23.6. In addition, the NSP/control in assay [2] was 34.2. Also, the “ELISA INS” value in assay [3] was 2. For the same molecule, in assay [4], the “ELISA NSP” value is 2.91.

B6: 3NSP78 (VHH)
VHH: QVQLQESGGGLVQAGGSLRLSCAASGRAFSSYVMGWFRQAPGKEREFVAAIHWTGAATVYVDSVKGRFAISRHNAKNTVYLEMNSLKPEDTAVYYCAADPSGSYWPPKRYDYWGQGTQVTVSS
For B6, the INS/control in assay [5] was 28.6. In addition, in assay [6], the NSP/control worked out at 47.2.

B7: 2NSP90 (VHH)
VHH: QVQLQESGGGLVQTGDSLRLSCAVSGRTFSTYSVGWFRQAPGKEREFVALRWSGGTTYYADSVVGRFTVSRDNAKNTVYLEMNSLKPEDTAVYYCAADRGSGSYSPTYRWDYWGQGTQVTVSS
B7 displayed an INS/control in assay [1] of 21. The same molecule showed an NSP/control in assay [2] of 50.8. For the same molecule, the “ELISA INS” value in assay [3] was found to be 1.98. In assay [4], the “ELISA NSP” value is 4.78.

B8: 3NSP29 (VHH)
VHH: QVQLQESGGGLVQAGGSLRLSCAASGRTFSRYAMGWFRQAPGKERESVAAINWSGTSIFYANSVEGRFTISRDNAKNTVYLQLNSLKPEDTAVYYCGVVLNGMPYWGRGTQVTVSS
In assay [5], B8 displayed an INS/control of 1.84. In assay [6], this molecule yielded an NSP/control of 3.85.

B9: 2INS27 (VHH)
VHH: QVQLQESGGGLVQAGGSLRLSCATSGSIFSSAVMGWYRQAPGNERELVALIGSSDTTDYSNSVKGRFTISRDNAKNTAYLRMNSLKPEDTAVYYCTAVKYGLGGFVYWGQGTQVTVSS
In the case of B9, the INS/control in assay [1] was found to be 31.3. In assay [2], this molecule had an NSP/control of 28.9. In assay [3], the “ELISA INS” value was found to be 3. The “ELISA NSP” value in assay [4] worked out at 2.77.

B10: 3NSP56 (VHH)
VHH: QVQLQESGGGLVQAGGSLRLSCAASGRTFSRYAMGWFRQAPGKERESVAAINWSGTSIFYANSVEGRFTISRDNAKNTVYLQLNSLKPEDTAVYYCAADLVRNYRLGWGDGVYDHYGQGTQVTVSS
In turn, B10 gave an INS/control in assay [5] of 2.61. Also, the NSP/control in assay [6] worked out at 5.47.

B11: 2NSP23 (VHH)
VHH: QVQLQESGGGLVQPGGSLRLSCAASGLAFSMYTMGWFRQAPGKEREFVAMIISSGDSTDYADSVKGRFTISRDNGKNTVYLQMDSLKPEDTAVYYCAAPKFRYYFSTSPGDFDSWGQGTQVTVSS
B11 gave an INS/control in assay [1] of 16.8. In assay [2], this molecule registered an NSP/control of 41.8. The “ELISA INS” value in assay [3] turned out to be 1.72. Also, the “ELISA NSP” value in assay [4] stood at 4.28.

B12: 2INS45 (VHH)
VHH: QVQLQESGGGLVQAGGSLRLSCAASGFTLSSNDMGWYRQAPGKQRELVATITSGLSTNYADSVKGRFTISRDNAKNTVFLQMNSLKIEDTAVYYCEVERGWGPPRDYWGHGTQVTVSS
B12: the INS/control in assay [5] was 26.9. In assay [6], this molecule showed an NSP/control of 45.
